Measurements reported in patent US6642203B1, “Crustacean antimicrobial peptides” (Institut Francais de Recherche pour l'Exploitation de la Mer, priority 1997, dated 2003).

Key:
Format in all cases: cell-based
[1] = system: Micrococcus luteus; experiment: Measurement of the bacteriostatic properties (CFU over time); conditions: for colonies formed (cfu): 18 μM (8 times MIC)
Description: A midlogarithmic phase culture of Micrococcus luteus in the “Poor Broth” medium defined above was incubated at 30° C. in the presence of the peptide or (as control) of water. The final concentration of the molecules tested is 8 times higher than the MIC. 20-μl alquots are collected at various time intervals and cultured on nutrient agar plate. The number of colonies formed (CFU) is determined after 24 hours of incubation at 37° C.

[2] = system: Fusarium oxysporum; experiment: Antifungal activity, inhibition of growth in liquid phase
Description: (§1) The antifungal activity was determined against Neurospora crassa and Fusarium oxysporum by a test of inhibition of growth in liquid phase. 80 μl of fungal spores (final concentration: 10^4 spores/ml) are suspended in ½ Potato Dextrose Broth (DIFCO) supplemented with tetracycline (10 μg/ml) and cefotaxime (100 μg/ml). This suspension was added to 10 μl of the fraction to be tested in microtitre plates. The final volume is brought to 100 μl by addition of 10 μl of water. Growth inhibition can be observed under a microscope after 24 hours of incubation at 25° C. in the dark, and measured by the variation in the optical density at 600 nm after 48 hours.

[3] = system: Neurospora crassa; experiment: as above
Description: as §1

[4] = system: Escherichia coli D31; experiment: Antibacterial assay, inhibition of growth in liquid phase (MIC); conditions: Escherichia coli D31, 24 h at 30° C.
Description: The bacteria are cultured with a starting optical density A600=0.001 in “Poor-Broth” nutrient medium (1% bactotryptone, 0.5% NaCl w/v).
The fractions were tested by inhibition of growth in liquid phase.
10 μl aliquots of each fraction to be tested are incubated in microtitre plates with 100 μl of a suspension of bacteria at the midlogarithmic phase.
The bacterial growth is measured by determining the optical density A600 after an incubation of 24 hours at 30° C.
An identical procedure was used to determine the minimum inhibitory concentration (MIC) of the molecules on these bacterial strains. The MIC values correspond to an interval a-b of peptide concentrations, where a represents the highest concentration at which bacterial growth is observed, and b is the lowest concentration which causes 100% inhibition of growth.

B1: Penaeidin 3: antimicrobial peptide of 62 amino acids, about 6.6 kDa, from Penaeus vannamei haemolymph (protein, listed as Penaeus vannamei)
chain: EVYKGGYTRPIPRPPPFVRPLPGGPIGPYNGCPVSCRGISFSQARSCCSRLGRCCHVGKGYS
colonies formed (cfu) ([1]; incubation time 1 min): 4.30 10^4 cfu/ml | colonies formed (cfu) ([1]; incubation time 30 min): 4.45 10^4 cfu/ml | colonies formed (cfu) ([1]; incubation time 2 h): 3.15 10^4 cfu/ml | colonies formed (cfu) ([1]; incubation time 4 h): 4.60 10^4 cfu/ml | colonies formed (cfu) ([1]; incubation time 7 h): 4.50 10^4 cfu/ml | colonies formed (cfu) ([1]; incubation time 24 h): 5.60 10^4 cfu/ml | bacterial growth ([1]; 18 μM, after an incubation of 24 hours): no bacterial growth is observed | kind of antibacterial effect ([1]; 18 μM, number of colonies constant over sample collections): bacteriostatic effect | MIC [2]: > 5 µM | MIC [3]: > 5 µM | MIC [4]: > 5 µM
